This passage reports beta-galactosidase activity results from article PMC3086059.

The target of the experiment is Mua fused to the T18 or T25 fragment of adenylate cyclase (BACTH) (Helicobacter pylori). As to the kind of experiment: two-hybrid. Conditions: scale: Miller units per mg of bacterial dry weight.

The substance “Mua fused to the T18 or T25 fragment of adenylate cyclase (BACTH) (natural protein)” came in with a beta-galactosidase activity of 1920 to 2980.
